From patent publication US20230201308A1, “TREATMENT OF CORONAVIRUS INFECTION WITH […]” (Eiger Biopharmaceuticals, Inc., priority 2020, published 2023)

Test system: SARS-CoV-2
Assay: Second trial: outpatients with mild to moderate COVID-19, SARS-CoV-2 RNA viral load and clearance
Format: in vivo, human
Experimental: Using the methods and criteria described above in Examples 1-3, a second trial was performed to assess interferon lambda for immediate antiviral therapy at diagnosis in COVID-19 infections. The second trial included a randomized trial of pegylated interferon lambda in outpatients with mild to moderate COVID-19 infection.
Thirty participants were randomly assigned to receive 180 mcg pegylated interferon lambda-1a, and 30 participants were assigned to receive a saline placebo. Patients were followed for 14 days. Nasopharyngeal samples were collected. The baseline SARS-CoV-2 viral load in the interferon lambda group was 6.2 log10 copies/mL and was 4.9 log10 copies/mL in the placebo group. In the interferon lambda group (19 subjects) and placebo (16 subjects) groups, there were a total of 35 subjects with viral loads great or equal to 6 log10 copies/mL.

[1] = baseline RNA above 10^6 copies/mL
[2] = baseline viral load below 10^6 copies/mL

B1: pegylated interferon lambda-1a (protein)
chain: MKPTTTGKGCHIGRFKSLSPQELASFKKARDALEESLKLKNWSCSSPVFPGNWDLRLLQVRERPVALEAELALTLKVLEAAAGPALEDVLDQPLHTLHHILSQLQACIQPQPTAGPRPRGRLHHWLHRLQEAPKKESAGCLEASVTFNLFRLLTRDLKYVADGNLSLRTSTHPEST
modifications: PEG
notes: 180 mcg subcutaneous injection
B1 was tested, and the “OR of response (clearance) at Day 7 vs Placebo” value (shortened to “OR of response … vs Placebo”) (Adjusted for Asymptomatic at baseline, all patients) was 2.91, the “OR of response … vs Placebo” value (Adjusted for Asymptomatic at baseline, ≥10E6 copies/mL) was 0.00 and the “OR of response … vs Placebo” value (Adjusted for BMI, all patients) was 2.37. For the same molecule, the “OR of response … vs Placebo” value (Adjusted for BMI, ≥10E6 copies/mL) was 6.73, the “OR of response … vs Placebo” value (Adjusted for IFNL4 genotype, all patients) was 2.24 and the “OR of response … vs Placebo” value (Adjusted for IFNL4 genotype, ≥10E6 copies/mL) was 7.66. For the same molecule, the “OR of response … vs Placebo” value (Adjusted for age, all patients) was 2.48, the “OR of response … vs Placebo” value (Adjusted for age, ≥10E6 copies/mL) was 9.42 and the “OR of response … vs Placebo” value (Adjusted for comorbidity, all patients) was 2.35. For the same molecule, the “OR of response … vs Placebo” value (Adjusted for comorbidity, ≥10E6 copies/mL) was 10.46, the “OR of response … vs Placebo” value (Adjusted for sex, all patients) was 2.36 and the “OR of response … vs Placebo” value (Adjusted for sex, ≥10E6 copies/mL) was 6.44. The “OR of response … vs Placebo” value (Adjusted for viral load at baseline, all patients) was 4.12, the “OR of response … vs Placebo” value (Adjusted for viral load at baseline, ≥10E6 copies/mL) was 8.16 and the “OR of response … vs Placebo” value (Adjusted for viral load with interaction, baseline 10E3 copies/mL) was 1.45. The “OR of response … vs Placebo” value (Adjusted for viral load with interaction, baseline 10E4 copies/mL) was 1.88, the “OR of response … vs Placebo” value (Adjusted for viral load with interaction, baseline 10E5 copies/mL) was 2.43 and the “OR of response … vs Placebo” value (Adjusted for viral load with interaction, baseline 10E6 copies/mL) was 3.14. The “OR of response … vs Placebo” value (Adjusted for viral load with interaction, baseline 10E7 copies/mL) was 4.05, the “OR of response … vs Placebo” value (Adjusted for viral load with interaction, baseline 10E8 copies/mL) was 5.23 and the “OR of response … vs Placebo” value (Adjusted for viral load with interaction, baseline 10E9 copies/mL) was 6.76. For the same molecule, the “OR of response … vs Placebo” value (Crude, all patients) was 2.32, the “OR of response … vs Placebo” value (Crude, ≥10E6 copies/mL at baseline) was 6.25 and the “viral load decline greater than in placebo group” value (shortened to “viral load decline greater than”) (Day 3, all patients) was 0.82 log copies/mL. For the same molecule, the “viral load decline greater than” value (Day 5, all patients) was 1.67 log copies/mL, the “viral load decline greater than” value (Day 7, all patients) was 2.42 log copies/mL and the “viral load decline greater than” value (Day 14, all patients) was 1.77 log copies/mL. The “median time to viral clearance” value [1] was 7 (95% CI 6.2-7.8) days, the “undetectable at Day 7, participants” value [1] was 15 of 19 and the “undetectable at Day 7, proportion” value [1] was 79%. For the same molecule, the “OR undetectable at Day 7 vs placebo” value [2] was 0.35, the “undetectable at Day 7, participants” value [2] was 9 of 11 and the “undetectable at Day 7, proportion” value [2] was 82%. The “negative for SARS-CoV-2 RNA, participants” value (by Day 7, all patients) was 24/30, the “negative for SARS-CoV-2 RNA, proportion” value (by Day 7, all patients) was 80% and the “viral level decrease in absolute terms” value (by Day 7, all patients) was 5.5 log copies/mL. For the same molecule, the viral load decline (by Day 7, baseline viral load at or above 10E6 copies/mL) was 7.17 log copies/mL, the “detectable virus at Day 7, participants” value (high baseline viral load) was 4 of 19 and the “detectable virus at Day 7, proportion” value (high baseline viral load) was 21%. The “OR of response at Day 7 for viral load at baseline within the IFN Lambda group” value (interaction model, all patients) was 0.82 and the “shedding of infectious virus at day 7” value (interferon lambda group) was “all subjects were below the level of shedding infectious virus at day 7”.
